From patent US5935824

Key:
[1] = molecular target: N-CBZ-Gly-Pro-Leu-Ala-Pro
[2] = molecular target: Lys-Lys peptide Pro-Leu-Ser-Arg-Leu-Ser-Val-Ala-Lys-Lys
[3] = molecular target: control peptide Ala-Leu-Lys-Asp-Ala-Gln-Thr-Asn-Ser-Ser-Ser-Phe
[4] = molecular target: MBP/IgG fusion protein encoded by pMA2-TH-IgG-9 (E. coli; human)

| cleavage of the fusion protein, time course on SDS-PAGE (% cleaved after 5 minutes) [4] | Substance | K^1 min^-1 (first order rate constant, flow digestion at 2 ml/min) (N-CBZ-Ala-Leu) | K^1 min^-1 (first order rate constant, flow digestion at 2 ml/min) (N-CBZ-Ala-Pro) | K^1 min^-1 (first order rate constant, flow digestion at 2 ml/min) (N-CBZ-Pro-Phe) | K^1 min^-1 (first order rate constant, flow digestion at 2 ml/min) (N-CBZ-Glu-Tyr) | K^1 min^-1 (first order rate constant, flow digestion at 2 ml/min) (N-CBZ-Gly-Pro) | kinetic constant of hydrolysis of the remaining Pro-Leu bond, ninhydrin assays of released amino acids [1] | first order rate constant of hydrolysis of the Lys-Lys bond, ninhydrin assay of free lysine [2] | removal of the carboxy-terminal phenylalanine, HPLC of the digestion products [3] | rate of digestion at the flow rate of 4 ml/minute (N-CBZ-Phe-Ala) |
| --- | --- | --- | --- | --- | --- | --- | --- | --- | --- | --- |
|  | carboxypeptidase Y (from UniProt P00729) (enzyme) | 27.5 min⁻¹ | 22.4 min⁻¹ | 1.48 min⁻¹ | 24.2 min⁻¹ | 0.16 min⁻¹ | 18.4 min⁻¹ | 0.16 min⁻¹ | 96% | 42 µmol/min |
| 75 | thrombin (Sigma) (enzyme) |  |  |  |  |  |  |  |  |  |
